“Also recorded” adds a separate entry of the source. Marks after values point to notes of the source that are not given here.
Tests used:
[1] = Gel filtration on Sephacryl S-300 HR (aggregate formation, method 1); format: physicochemical; design: key to KAV: KAV=(VE-V0)/(VT-V0); fraction of available elution volume; settings: for KAV: Sephacryl S-300 HR; for formation of high molecular weight soluble aggregates: gel filtration at neutral pH, formulation used (Table 1)
Experimental: A pH neutral aqueous buffer system is used in the gel filtration and the insulin derivatives in the aggregated state are applied to the column in the form of a pharmaceutical preparation at a concentration of 600 nmol insulin/ml. […] However, when the actual state of aggregation in a pharmaceutical preparation is to be assessed, the medium of the preparation, exclusive the Zn^2+ which is insulin bound, is used as the eluent for the gel filtration. A column of 28×1 cm is eluted at a rate of 15 ml/h. Insulin derivatives were injected (200 μl) as a standard formulation comprising 600 μM derivative, 200 or 300 μM Zn^2+, 20 mM NaCl (or varied), 16 mM phenol, 16 mM m-cresol, 7 mM sodium phosphate at pH 7.5. Exclusion limit of Sephacryl® S-300 HR is stated by the manufacturer, Pharmacia, as a molecular weight of 1,500 kDa for globular proteins and 400 kDa for linear dextrans. In practice the elution of solutes of different size is characterised by the available volume as KAV values: KAV=(VE-V0)/(VT-V0) where VE is elution volume, V0 is void volume, e.g. elution volume of blue dextran, VT is total volume. Thus, the KAV value is independent of column dimension. […]

[2] = Gel filtration method 2 on Superose 6HR (HPLC, 37° C.); format: physicochemical; settings: 140 mM NaCl, 10 mM tris, pH 7.4; for KAV (Superose 6HR): standards; for KAV (Superose 6HR) 2Zn^2+/6 ins: 2 Zn2+/6 ins; for KAV (Superose 6HR) 3Zn^2+/6 ins: 3 Zn2+/6 ins
Experimental: An alternative method to measure the capability of insulin derivatives of forming soluble high molecular weight aggregates was developed, suitable for HPLC equipment. The column dimensions, injection volume, and flow rate correspond to the first method, whereas the temperature is increased to 37° C. and the phosphate buffer is changed to trishydroxymethylaminomethan hydrochloride and additional sodium chloride. The aggregated state of insulin is defined to elute before the gel filtration standard aldolase like in the first method.

[3] = Disappearance after subcutaneous injection in pigs; settings: pig, in vivo, sc
Source text: The gel filtration experiment using the conditions prescribed in this section is the direct physico-chemical method to reveal the potential aggregate formation property of an insulin derivative. Disappearance after subcutaneous injection in pigs reflects the combination of the albumin binding and polymer formation properties of the insulin derivative, besides a variety of biological factors.

[4] = molecular target: Albumin (Homo sapiens, UniProt P02768)
[5] = Gel filtration on Sephacryl S-300 HR (aggregate formation, method 1); format: physicochemical; design: key to KAV: KAV=(VE-V0)/(VT-V0); fraction of available elution volume
[6] = pH 7.4 eluent, standards applied dissolved in water
[7] = eluent 125 mM NaCl, 20 mM sodium phosphate pH 7.4, sample 600 μM derivative, 200 μM Zn2+, 0-20 mM NaCl, phenol, m-cresol, pH 7.5

For Ferritin [reference compound], the KAV [1, 6] was 0.19 and the “KAV (Superose 6HR)” value [2] was 0.40.

In the case of “Lys^B29(N^ε ω-carboxynonadecanoyl) des(B30)”, the KAV [1, 7] is reported as 0.04, the “Disappearance T50%” value [3] is reported as 21.9 h and the “Albumin binding Kass” value [4] is reported as 36 × 10^5 (mol/l)^−1.

In the case of “Lys^B29(N^ε-hexadecanoyl-α-amido-γ-Glu-) des(B30) HI”, the “Disappearance in pigs, T50%” value [3] is reported as 15.3 h, the “KAV (Superose 6HR) 2Zn^2+/6 ins” value [2] is reported as 0.38 and the “KAV (Superose 6HR) 3Zn^2+/6 ins” value [2] is reported as 0.41. The “Albumin binding Kass” value [4] was 0.56 10^5M^−1.

For Lys^B29(N^ε-cholanoyl-) des(B30) HI, the “Disappearance in pigs, T50%” value [3] was 20.1 h, the “KAV (Superose 6HR) 2Zn^2+/6 ins” value [2] was 0.40 and the “KAV (Superose 6HR) 3Zn^2+/6 ins” value [2] was 0.17. The “Albumin binding Kass” value [4] was 0.48 10^5M^−1.

For “Lys^B29(N^εlithocholyl-α-Glu-) des(B30) human insulin”, the KAV [1, 7] was 0.53, the “formation of high molecular weight soluble aggregates” value [1] was “only the first forms aggregates; also recorded: incapable of forming soluble high molecular weight aggregates” and the “Disappearance T50%” value [3] was 11.8 h. The “Albumin binding Kass” value [4] was 0.3 × 10^5 (mol/l)^−1.

For “Lys^B29(N^ε-lithocholoyl-β-Asp-) des(B30) HI”, the “KAV (Superose 6HR) 2Zn^2+/6 ins” value [2] was 0.18 and the “KAV (Superose 6HR) 3Zn^2+/6 ins” value [2] was 0.11.

For “Lys^B29(N^εω-carboxyheptadecanoyl) des(B30) human insulin”, the formation of aggregates ([5]; gel filtration, absence of Zn2+ (0 Zn2+/hexamer)) was “aggregates are not formed”, the KAV [1, 7] was 0.05 and the KAV ([1]; medium of the preparation as eluent: 5 mM sodium phosphate pH 7.5, 10 mM NaCl, 16 mM phenol, 16 mM m-cresol, 1.6% glycerol, 2-3 Zn2+/hexamer) was “about 0.45”. The “formation of high molecular weight soluble aggregates” value [1] was “capable of forming high molecular weight soluble aggregates”, the “degree of aggregation in the published formulation” value ([1]; medium of the preparation as eluent, 10 mM NaCl, 2-3 Zn2+/hexamer) was “no high molecular weight aggregates of insulin derivatives was present” and the “Disappearance T50%” value [3] was 18.7 h. For the same molecule, the “Albumin binding Kass” value [4] was 25 × 10^5 (mol/l)^−1.

For “Lys^B29(N^ε-lithocholoyl-β-Ala-) des(B30) HI”, the “KAV (Superose 6HR) 2Zn^2+/6 ins” value [2] was 0.00 and the “KAV (Superose 6HR) 3Zn^2+/6 ins” value [2] was 0.13.

With “Lys^B29(N^ε-lithocholoyl-α-amido-γ-Glu-) des(B30) HI” the “Disappearance in pigs, T50%” value [3] was >34 h, the “KAV (Superose 6HR) 2Zn^2+/6 ins” value [2] was −0.02 and the “KAV (Superose 6HR) 3Zn^2+/6 ins” value [2] was 0.00. The “Albumin binding Kass” value [4] was 0.23 10^5M^−1.

For “Aldolase: molecular size standard, Mw 158 kDa [reference compound]”, the KAV [1, 6] was ~0.32 and the “KAV (Superose 6HR)” value [2] was 0.50.

In the case of “Albumin: molecular size standard, Mw 67 kDa [reference compound]”, the KAV [1, 6] is reported as ~0.38.

With “Thyroglobulin: molecular size standard, Mw 669 kDa [reference compound]” the KAV [1, 6] was 0.08 and the “KAV (Superose 6HR)” value [2] was 0.28.

With Lys^B29(N^ε lithocholyl the KAV ([5]; Sephacryl S-300 HR, pH 7.4 eluent, Zinc free) was 0.74.

With “Asp^A21 Lys^B29(N^ε-tetradecanoyl-) des(B30) HI” the “Disappearance in pigs, T50%” value [3] was 16.4 h, the “KAV (Superose 6HR) 2Zn^2+/6 ins” value [2] was 0.55 and the “KAV (Superose 6HR) 3Zn^2+/6 ins” value [2] was 0.46. The “Albumin binding Kass” value [4] was 0.97 10^5M^−1.

With Lys^B29(N^ε decanoyl) the KAV ([1]; eluent 125 mM NaCl, 20 mM sodium phosphate pH 7.4, sample 600 μM, 300 μM Zn2+) was 0.67, the “Disappearance T50%” value [3] was 5.1 h and the “Albumin binding Kass” value [4] was 0.06 × 10^5 (mol/l)^−1.

For “Lys^B29(N^ε-dehydrolithocholoyl-) des(B30) HI”, the “Disappearance in pigs, T50%” value [3] was >34 h, the “KAV (Superose 6HR) 2Zn^2+/6 ins” value [2] was 0.05 and the “KAV (Superose 6HR) 3Zn^2+/6 ins” value [2] was 0.03. For the same molecule, the “Albumin binding Kass” value [4] was 0.26 10^5M^−1.

In the case of Lys^B29(N^ε-lithocholoyl-) des(B30) HI, the “Disappearance in pigs, T50%” value [3] is reported as >34 h, the “KAV (Superose 6HR) 2Zn^2+/6 ins” value [2] is reported as −0.01 and the “KAV (Superose 6HR) 3Zn^2+/6 ins” value [2] is reported as 0.23. For the same molecule, the “Albumin binding Kass” value [4] was 0.38 10^5M^−1.

For “Lys^B29(N^εlithocholyl-γ-Glu-) des(B30) human insulin [Lys^B29(N^ε lithocholyl-γ-Glu-) des(B30)]”, the KAV [1, 7] was 0.04*, the “formation of high molecular weight soluble aggregates” value [1] was “capable of forming soluble high molecular weight aggregates” and the “formation of high molecular weight soluble aggregates” value ([1]; listed as Ly B^29(N^εlithocholyl-γ-Glu-) des(B30) human insulin) was “capable of forming high molecular weight soluble aggregates”. For the same molecule, the “Disappearance T50%” value [3] was 22.8 h, the “Disappearance in pigs, T50%” value [3] was 22.8 h and the “KAV (Superose 6HR) 2Zn^2+/6 ins” value [2] was 0.00. The “KAV (Superose 6HR) 3Zn^2+/6 ins” value [2] was −0.01.

Work on Lys^B29(N^ε cholesteryloxycarbonyl) yielded a KAV [1, 7] of 0.00.

For “Lys^B29(N^ε-deoxycholoyl-γ-Glu-) des(B30) HI”, the “Disappearance in pigs, T50%” value [3] was 13.9 h, the “KAV (Superose 6HR) 2Zn^2+/6 ins” value [2] was 0.20 and the “KAV (Superose 6HR) 3Zn^2+/6 ins” value [2] was 0.07. For the same molecule, the “Albumin binding Kass” value [4] was 0.03 10^5M^−1.

For “Lys^B29(N^ε-lithocholoyl-γ-aminobutanoyl-) des(B30) HI”, the “KAV (Superose 6HR) 2Zn^2+/6 ins” value [2] was 0.06 and the “KAV (Superose 6HR) 3Zn^2+/6 ins” value [2] was 0.00.

In the case of “Lys^B29(N^εtetradecanoyl) des(B30) human insulin [Lys^B29(N^ε tetradecanoyl) des(B30), reference compound]”, the KAV [1, 7] is reported as 0.51, the “formation of high molecular weight soluble aggregates” value [1] is reported as “incapable of forming soluble high molecular weight aggregates” and the “Disappearance T50%” value [3] is reported as 14.3 h. The “KAV (Superose 6HR) 2Zn^2+/6 ins” value [2] was 0.58 and the “KAV (Superose 6HR) 3Zn^2+/6 ins” value [2] was 0.56.

For “B9Asp, B27Glu human insulin [reference compound]”, the KAV [1, 6] was 0.71, the KAV ([1]; pH 7.4 eluent, standards applied dissolved in water, listed as monomeric form of insulin) was “about 0.71” and the “Disappearance T50%” value [3] was “(1) h”. The “KAV (Superose 6HR)” value [2] was 0.73 and the “Albumin binding Kass” value [4] was 0 (mol/l)^−1.

B1: Catalase: molecular size standard, Mw 232 kDa (protein, UniProt P00432 2-527, looked up)
Catalase: ADNRDPASDQMKHWKEQRAAQKPDVLTTGGGNPVGDKLNSLTVGPRGPLLVQDVVFTDEMAHFDRERIPERVVHAKGAGAFGYFEVTHDITRYSKAKVFEHIGKRTPIAVRFSTVAGESGSADTVRDPRGFAVKFYTEDGNWDLVGNNTPIFFIRDALLFPSFIHSQKRNPQTHLKDPDMVWDFWSLRPESLHQVSFLFSDRGIPDGHRHMNGYGSHTFKLVNANGEAVYCKFHYKTDQGIKNLSVEDAARLAHEDPDYGLRDLFNAIATGNYPSWTLYIQVMTFSEAEIFPFNPFDLTKVWPHGDYPLIPVGKLVLNRNPVNYFAEVEQLAFDPSNMPPGIEPSPDKMLQGRLFAYPDTHRHRLGPNYLQIPVNCPYRARVANYQRDGPMCMMDNQGGAPNYYPNSFSAPEHQPSALEHRTHFSGDVQRFNSANDDNVTQVRTFYLKVLNEEQRKRLCENIAGHLKDAQLFIQKKAVKNFSDVHPEYGSRIQALLDKYNEEKPKNAVHTYVQHGSHLSAREKANL
B1 showed a KAV [1, 6] of 0.30.

B2: Ovalbumin: molecular size standard, Mw 43 kDa (protein, UniProt P01012 2-386, looked up)
Ovalbumin: GSIGAASMEFCFDVFKELKVHHANENIFYCPIAIMSALAMVYLGAKDSTRTQINKVVRFDKLPGFGDSIEAQCGTSVNVHSSLRDILNQITKPNDVYSFSLASRLYAEERYPILPEYLQCVKELYRGGLEPINFQTAADQARELINSWVESQTNGIIRNVLQPSSVDSQTAMVLVNAIVFKGLWEKAFKDEDTQAMPFRVTEQESKPVQMMYQIGLFRVASMASEKMKILELPFASGTMSMLVLLPDEVSGLEQLESIINFEKLTEWTSSNVMEERKIKVYLPRMKMEEKYNLTSVLMAMGITDVFSSSANLSGISSAESLKISQAVHAAHAEINEAGREVVGSAEAGVDAASVSEEFRADHPFLFCIKHIATNAVLFFGRCVSP
With B2 the “KAV (Superose 6HR)” value [2] was 0.58.

B3: Ribonuclease: molecular size standard, Mw 13.7 kDa (protein, UniProt P61823 27-150, looked up)
Ribonuclease pancreatic: KETAAAKFERQHMDSSTSAASSSNYCNQMMKSRNLTKDRCKPVNTFVHESLADVQAVCSQKNVACKNGQTNCYQSYSTMSITDCRETGSSKYPNCAYKTTQANKHIIVACEGNPYVPVHFDASV
For B3, the KAV [1, 6] was 0.63 and the “KAV (Superose 6HR)” value [2] was 0.72.

From patent US6451762B1 (Novo Nordisk A/S, priority 1997, dated 2002)
